T1: Human IL-18Rα ectodomain (amino acids 19-329), biotinylated (human, UniProt Q13478 19-329, biotin on the AviTag (BirA ligase))
T1 construct: range 19-329; Secreted from insect cells (gp67 signal peptide removed); also called hIL-18Rα; hIL18Rα
T1 sequence: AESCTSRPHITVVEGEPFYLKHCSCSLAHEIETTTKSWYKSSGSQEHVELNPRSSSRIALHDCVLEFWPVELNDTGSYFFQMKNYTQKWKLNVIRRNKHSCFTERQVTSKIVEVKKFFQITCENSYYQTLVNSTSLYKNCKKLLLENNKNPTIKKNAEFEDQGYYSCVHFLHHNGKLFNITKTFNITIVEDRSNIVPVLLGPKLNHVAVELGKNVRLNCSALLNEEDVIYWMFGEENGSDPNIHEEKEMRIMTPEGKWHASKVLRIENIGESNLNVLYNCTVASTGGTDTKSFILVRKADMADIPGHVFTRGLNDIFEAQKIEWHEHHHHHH

T2: IL-18 receptor (IL-18Rα / IL-18Rβ heterodimer) on HEK-Blue IL-18 reporter cells (UniProt Q13478 19-541; O95256 20-599, limits assumed)
T2 sequence (looked up) 1: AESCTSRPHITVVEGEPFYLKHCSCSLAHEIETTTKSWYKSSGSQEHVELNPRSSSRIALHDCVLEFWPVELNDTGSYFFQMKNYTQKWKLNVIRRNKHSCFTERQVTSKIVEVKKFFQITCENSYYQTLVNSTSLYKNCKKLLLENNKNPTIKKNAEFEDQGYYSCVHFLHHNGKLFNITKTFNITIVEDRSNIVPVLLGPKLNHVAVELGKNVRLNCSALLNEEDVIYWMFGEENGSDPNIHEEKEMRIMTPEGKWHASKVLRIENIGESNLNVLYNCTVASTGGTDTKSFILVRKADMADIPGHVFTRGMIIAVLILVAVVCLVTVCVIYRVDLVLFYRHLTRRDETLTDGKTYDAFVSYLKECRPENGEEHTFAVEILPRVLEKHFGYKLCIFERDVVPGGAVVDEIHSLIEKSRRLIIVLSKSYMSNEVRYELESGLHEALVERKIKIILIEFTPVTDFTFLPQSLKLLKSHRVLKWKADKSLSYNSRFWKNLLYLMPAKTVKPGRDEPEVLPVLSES
T2 sequence (looked up) 2: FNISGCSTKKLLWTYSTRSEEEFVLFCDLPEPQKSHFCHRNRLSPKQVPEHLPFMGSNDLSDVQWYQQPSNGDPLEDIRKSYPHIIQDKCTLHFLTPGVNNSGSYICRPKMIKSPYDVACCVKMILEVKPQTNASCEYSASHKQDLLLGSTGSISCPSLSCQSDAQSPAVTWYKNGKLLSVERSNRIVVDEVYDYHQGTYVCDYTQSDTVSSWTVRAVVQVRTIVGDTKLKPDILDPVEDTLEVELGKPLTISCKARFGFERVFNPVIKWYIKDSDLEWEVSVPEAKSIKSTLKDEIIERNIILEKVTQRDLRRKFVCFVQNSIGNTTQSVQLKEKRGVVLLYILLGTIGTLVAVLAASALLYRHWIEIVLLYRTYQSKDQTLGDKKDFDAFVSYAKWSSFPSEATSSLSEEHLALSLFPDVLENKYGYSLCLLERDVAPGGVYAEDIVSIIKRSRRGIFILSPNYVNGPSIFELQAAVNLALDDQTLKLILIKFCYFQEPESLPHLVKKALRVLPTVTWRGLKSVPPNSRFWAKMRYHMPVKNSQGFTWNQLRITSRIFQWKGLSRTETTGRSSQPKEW

T3: Human IL-18BP (amino acids 31-194), biotinylated (human, UniProt O95998 31-194, biotin on the AviTag (BirA ligase) where used biotinylated)
T3 construct: Soluble decoy receptor; also called hIL-18BP; recombinant IL-18BP
T3 sequence: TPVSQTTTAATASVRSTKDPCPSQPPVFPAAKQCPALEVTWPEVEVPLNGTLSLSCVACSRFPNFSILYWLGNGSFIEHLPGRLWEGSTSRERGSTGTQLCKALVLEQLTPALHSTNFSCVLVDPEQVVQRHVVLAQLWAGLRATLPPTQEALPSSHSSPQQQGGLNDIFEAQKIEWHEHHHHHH


Assays:
[1] = target: T1, Human IL-18Rα ectodomain (amino acids …); experiment: SPR
[2] = target: T2, IL-18 receptor (IL-18Rα / IL-18Rβ …); experiment: cell-based or functional assay
[3] = target: T1, Human IL-18Rα ectodomain (amino acids …); experiment: SPR, apparent KD, first value of the cell; Exp 2
Description: (§1) Surface Plasmon Resonance (SPR) was used to perform biophysical affinity measurements of second generation DR-IL-18 variants (binding to IL-18R vs IL-18BP). Experiments were conducted using a Biacore T100 instrument and carried out at 25° C. Biotinylated IL-18Rα or IL-18BP were immobilized onto a Biacore biotin capture chip (Series S CAP sensor chip, GE Healthcare) to yield an Rmax of ˜50 RU (IL-18Rα) or ˜10 RU (IL-18BP). Measurements were made with serial dilutions of the IL-18 variants in HEPES buffered Saline-P+ buffer (10 mM HEPES pH 7.4, 150 mM NaCl, 0.005% surfactant P20). The surface was regenerated by three 60-sec injections of regeneration buffer (3/4 (v/v) 8M guanidine hydrochloride with ¼ (v/v) 1M sodium hydroxide). Experiments were performed in multiple channels simultaneously for increased observations. All data were analyzed with the Biacore T100 evaluation software version 2.0 with a 1:1 Langmuir binding model.

[4] = target: T1, Human IL-18Rα ectodomain (amino acids …); experiment: SPR, apparent KD, second value of the cell; Exp 1
Description: as §1

[5] = target: T1, Human IL-18Rα ectodomain (amino acids …); experiment: SPR (Biacore T100), hIL-18Rα as surface ligand; Exp 1
Description: as §1

[6] = target: T1, Human IL-18Rα ectodomain (amino acids …); experiment: SPR (Biacore T100), hIL-18Rα as surface ligand; Exp 2
Description: as §1

[7] = target: T1, Human IL-18Rα ectodomain (amino acids …); experiment: SPR (Biacore T100), hIL-18Rα as surface ligand, 1:1 Langmuir
Description: as §1

[8] = target: T1, Human IL-18Rα ectodomain (amino acids …); experiment: on-yeast binding isotherm (flow cytometry), drawn summary table, IL18Rα (KD)
Description: Individual colonies of IL-18 yeast were grown overnight at 30° C. in SDCAA liquid media and induced in SGCAA liquid media for 1 day at 20° C. IL-18 display levels on yeast were verified by flow cytometry using an anti-cMyc tag antibody (anti-myc-PE; Cell Signaling Technologies). Receptor staining with biotinylated IL-18Rα (with or without IL-18R β) or biotinylated IL-18BP was performed in PBS supplemented with 0.5% BSA and 2 mM EDTA (PBE) on ice. All analysis was performed on a Sony SA3800 flow cytometer.

[9] = target: T3, Human IL-18BP (amino acids 31-194), …; experiment: SPR; KD(IL-18BP)/KD(IL-18Rα) normalized to WT IL-18; SPR; ratio from the bound KD BP >10,000 nM
Description: as §1

[10] = target: T3, Human IL-18BP (amino acids 31-194), …; experiment: on-yeast binding isotherms; 20 µM used for NBD; printed without '>'; yeast-displayed variant; ratio computed with 20 µM put in for NBD
[11] = target: T3, Human IL-18BP (amino acids 31-194), …; experiment: on-yeast binding isotherms; KD ratio relative to WT IL-18; yeast-displayed variant; ratio normalized to WT, from the 20 µM placeholder
[12] = target: T1, Human IL-18Rα ectodomain (amino acids …); experiment: SPR, apparent KD, first value of the cell
Description: as §1

[13] = target: T1, Human IL-18Rα ectodomain (amino acids …); experiment: SPR, apparent KD, second value of the cell
Description: as §1

[14] = target: T3, Human IL-18BP (amino acids 31-194), …; experiment: SPR; KD(IL-18BP)/KD(IL-18Rα) normalized to WT IL-18; SPR; normalized ratio, a bound from KD BP >10,000 nM
Description: as §1

Row | Binder | Kd [1] | EC50-#1 (M), HEK-Blue reporter [2] | EC50-#2 (M), HEK-Blue reporter [2] | Kd [3] | Kd [4] | Kd [5] | Kd [6] | koff [7] | kon [7] | Kd [8] | IL-18 BP:Rα Dissociation Constant Ratio [9] | KD ratio IL-18BP/IL-18Rα [10] | Dissociation Constant Ratio normalized to WT IL-18 [11] | Kd [12] | Kd [13] | IL-18 BP:Rα Dissociation Constant Ratio [14]
1 | SEQ ID NO: 89 (second generation human DR-IL-18 variant 6-12) (ligand, Engineered variant; recombinant soluble analyte in SPR and cell assays) YFGKLESKLSVIRNLNDQVLFIDQGNRPLFEDMTDSDCRDNAPRTIFIISKYSDSLARGLAVTISVKCEKISTLSCENKIISFKEMNPPDNIKDTKSDIIFFQRDVPGHSRKMQFESSSYEGYFLACEKERDLFKLILKKEDELGDRSIMFTVQNED | 2.2 nM | 1.43e-10 M | 5.44e-11 M | 1.8 nM | 2.2 nM | 2.24 nM | 1.84 nM | 0.00091 s⁻¹ | 495000 M⁻¹ s⁻¹ | 17 nM | > 9.32e+06 | > 1200 | > 17000 |  |  | 
2 | SEQ ID NO: 91 (second generation human DR-IL-18 variant 6-29) (ligand, Engineered variant; recombinant soluble analyte in SPR and cell assays) YFGKLESKLSVIRNLNDQVLFIDQGNRPLFEDMTDSDCRDNAPRTIFIISKYSDSRARGLAVTISVKCEKISTLSCENKIISFKEMNPPDNIKDTKSDIIFFQRNVPGHGRKMQFESSSYEGYFLACEKERDLFKLILKKEDELGDRSIMFTVQNED | 2.7 nM |  |  |  |  | 2.65 nM | 2.07 nM | 0.00119 s⁻¹ | 575000 M⁻¹ s⁻¹ | 37 nM |  |  |  | 2.1 nM | 2.7 nM | > 7.59e+06

From patent publication US20230277625A1 (SIMCHA IL 18, published 2023)
